These results are taken from publication PMC4788495 (Journal of bioenergetics and biomembranes, 2008).

First the molecules themselves.
B1: cytochrome b subunit of the wild-type R. sphaeroides cytochrome bc1 complex (Rsbc1) (natural protein)
chain: GIPHDHYEPRTGIEKWLHSRLPIVALAYDTIMIPTPRNLNWMWIWGVVLAFCLVLQIVTGIVLAMHYTPHVDLAFASVEHIMRNVNGGFMLRYLHANGASLFFIAVYLHIFRGLYYGSYKAPREVTWIVGMLIYLAMMATAFMGYVLPWGQMSFWGATVITGLFGAIPGIGHSIQTWLLGGPAVDNATLNRFFSLHYLLPFVIAALVAIHIWAFHSTGNNNPTGVEVRRTSKAEAQKDTVPFWPYFIIKDVFALAVVLLVFFAIVGFMPNYLGHPDNYIEANPLSTPAHIVPEWYFLPFYAILRAFTADVWVVQIANFISFGIIDAKFFGVLAMFGAILVMALVPWLDTSPVRSGRYRPMFKIYFWLLAADFVILTWVGAQQTTFPYDWISLIASAYWFAYFLVILPILGAIEKPVAPPATIEEDFNA
B2: cytochrome c1 subunit of the R. sphaeroides cytochrome bc1 complex (Rsbc1), his-tag at the C-terminus (natural protein, UniProt Q02760 23-285, looked up)
chain: AGGGHVEDVPFSFEGPFGTFDQHQLQRGLQVYTEVCAACHGMKFVPIRSLSEPGGPELPEDQVRAYATQFTVTDEETGEDREGKPTDHFPHSALENAADLSLMAKARAGFHGPMGTGISQLFNGIGGPEYIYSVLTGFPEEPPKCAEGHEPDGFYYNRAFQNGSVPDTCKDANGVKTTAGSWIAMPPPLMDDLVEYADGHDASVHAMAEDVSAFLMWAAEPKLMARKQAGFTAVMFLTVLSVLLYLTNKRLWAGVKGKKKTNV
B3: cytochrome b S287R, subunit of the double mutant S287R(cyt b)/V135S(ISP) Rsbc1 (natural protein, R. sphaeroides, UniProt Q02761 1-445, looked up)
chain: MSGIPHDHYEPRTGIEKWLHSRLPIVALAYDTIMIPTPRNLNWMWIWGVVLAFCLVLQIVTGIVLAMHYTPHVDLAFASVEHIMRNVNGGFMLRYLHANGASLFFIAVYLHIFRGLYYGSYKAPREVTWIVGMLIYLAMMATAFMGYVLPWGQMSFWGATVITGLFGAIPGIGHSIQTWLLGGPAVDNATLNRFFSLHYLLPFVIAALVAIHIWAFHSTGNNNPTGVEVRRTSKAEAQKDTVPFWPYFIIKDVFALAVVLLVFFAIVGFMPNYLGHPDNYIEANPLRTPAHIVPEWYFLPFYAILRAFTADVWVVQIANFISFGIIDAKFFGVLAMFGAILVMALVPWLDTSPVRSGRYRPMFKIYFWLLAADFVILTWVGAQQTTFPYDWISLIASAYWFAYFLVILPILGAIEKPVAPPATIEEDFNAHYSPATGGTKTVVAE
B4: Rieske iron-sulfur protein V135S, subunit of the double mutant S287R(cyt b)/V135S(ISP) Rsbc1 (natural protein, R. sphaeroides, UniProt Q02762 1-187, looked up)
chain: MSNAEDHAGTRRDFLYYATAGAGAVATGAAVWPLINQMNPSADVQALASIFVDVSSVEPGVQLTVKFLGKPIFIRRRTEADIELGRSVQLGQLVDTNARNANIDAGAEATDQNRTLDEAGEWLVMWGVCTHLGCSPIGGVSGDFGGWFCPCHGSHYDSAGRIRKGPAPENLPIPLAKFIDETTIQLG
B5: Rieske iron-sulfur protein subunit of the wild-type R. sphaeroides cytochrome bc1 complex (Rsbc1) (natural protein)
chain: GTRRDFLYYATAGAGAVATGAAVWPLINQMNPSADVQALASIFVDVSSVEPGVQLTVKFLGKPIFIRRRTEADIELGRSVQLGQLVDTNARNANIDAGAEATDQNRTLDEAGEWLVMWGVCTHLGCVPIGGVSGDFGGWFCPCHGSHYDSAGRIRKGPAPENLPIPLAKFIDETTIQLG

Data set [1] concerns the molecule itself. In words: crystal structure.
For data set [2], the target named is B3. In words: crystal structure.
The target of data set [3] is B1. In words: SEC. On the technique in general: SEC sorts molecules by how far they enter the pores of the column.
Data set [4] concerns the molecule itself. Nature of the data set: crystal structure. This is another data set of the same source.
Data set [5] deals with B1. In words: crystal structure.

Take B1: in data set [1], the binding result is listed as “binds”.

B2: the binding result in data set [2] and in data set [3] was “binds” throughout.

On to B3, for which the “stoichiometry N” value in data set [4] turned out to be 2.

For the molecule B4, the binding result in data set [2] is given as “binds”.

In the case of B5, the binding result in data set [5] is reported as “binds”.

What is called stoichiometry N is the number of molecules, sites or subunits per partner or assembly.
